{"source": "FireProtDB (doi:10.1021/bi00250a042)", "proteins": {"B1": {"name": "Subtilisin-chymotrypsin inhibitor-2A wild type, P01053 (protein)", "chain": "MSSVEKKPEGVNTGAGDRHNLKTEWPELVGKSVEEAKKVILQDKPEAQIIVLPVGTIVTMEYRIDRVRLFVDKLDNIAQVPRVG"}}, "details": "Hordeum vulgare; pH 6.3; 25 °C; GdnHCl; Fluorescence; MES 450 mM; reversible: yes; whole UniProt chain shown", "data": [{"protein": "B1", "values": [{"measurement": "denaturant m value", "result": 1.89, "unit": "kcal/mol/M"}, {"measurement": "denaturant midpoint (higher = more stable)", "result": 3.99, "unit": "M"}, {"measurement": "unfolding free energy", "result": 7.53, "unit": "kcal/mol"}]}]}
